Data: publication PMC10397247

Experiments:
Assay in all cases: two-hybrid library CCmax;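 also: natural log of median RNA to DNA barcode read ratio; higher means stronger binding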
4H2728-AA = molecular target: T1, 4H2728-AA; settings: mean of both orientations
T1 chain: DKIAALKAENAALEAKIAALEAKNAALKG

4H2961-AA = molecular target: T2, 4H2961-AA; settings: mean of both orientations
T2 chain: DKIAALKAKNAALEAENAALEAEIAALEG

4H3939-AA = molecular target: T3, 4H3939-AA; settings: mean of both orientations
T3 chain: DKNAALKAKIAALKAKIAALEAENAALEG

4H2580-AA = molecular target: T4, 4H2580-AA; settings: mean of both orientations
T4 chain: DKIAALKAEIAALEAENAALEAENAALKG

4H3629-AA = molecular target: T5, 4H3629-AA; settings: mean of both orientations
T5 chain: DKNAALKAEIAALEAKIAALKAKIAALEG

4H3782-AA = molecular target: T6, 4H3782-AA; settings: mean of both orientations
T6 chain: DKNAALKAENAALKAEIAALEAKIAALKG

4H1360-AA = molecular target: T7, 4H1360-AA
T7 chain: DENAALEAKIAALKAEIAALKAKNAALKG

4H3969-AA = molecular target: T8, 4H3969-AA; settings: mean of both orientations
T8 chain: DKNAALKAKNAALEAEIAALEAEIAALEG

4H464-AA = molecular target: T9, 4H464-AA; settings: mean of both orientations
T9 chain: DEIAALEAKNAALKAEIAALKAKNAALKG

4H1454-AA = molecular target: T10, 4H1454-AA; settings: mean of both orientations
T10 chain: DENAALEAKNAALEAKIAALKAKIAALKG

4H3129-AA = molecular target: T11, 4H3129-AA; settings: mean of both orientations
T11 chain: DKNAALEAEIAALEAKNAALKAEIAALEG

4H1913-AA = molecular target: T12, 4H1913-AA; settings: mean of both orientations
T12 chain: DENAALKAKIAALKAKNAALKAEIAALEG

4H1558-AA = molecular target: T13, 4H1558-AA; settings: mean of both orientations
T13 chain: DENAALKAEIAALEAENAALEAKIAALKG

4H249-AA = molecular target: T14, 4H249-AA; settings: mean of both orientations
T14 chain: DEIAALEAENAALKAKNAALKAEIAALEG

4H380-AA = molecular target: T15, 4H380-AA; settings: mean of both orientations
T15 chain: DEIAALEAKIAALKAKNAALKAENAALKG

4H63-AA = molecular target: T16, 4H63-AA; settings: mean of both orientations
T16 chain: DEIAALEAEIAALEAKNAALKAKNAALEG

4H2699-AA = molecular target: T17, 4H2699-AA; settings: mean of both orientations
T17 chain: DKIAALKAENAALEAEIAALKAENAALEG

4H483-AA = molecular target: T18, 4H483-AA; settings: mean of both orientations
T18 chain: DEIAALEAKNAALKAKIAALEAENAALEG

4H3049-AA = molecular target: T19, 4H3049-AA; settings: mean of both orientations
T19 chain: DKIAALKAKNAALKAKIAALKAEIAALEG

4H2621-AA = molecular target: T20, 4H2621-AA; settings: mean of both orientations
T20 chain: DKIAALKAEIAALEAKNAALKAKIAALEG

4H3414-AA = molecular target: T21, 4H3414-AA; settings: mean of both orientations
T21 chain: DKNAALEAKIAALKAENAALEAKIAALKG

4H341-AA = molecular target: T22, 4H341-AA; settings: mean of both orientations
T22 chain: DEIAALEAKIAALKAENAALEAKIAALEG

4H3595-AA = molecular target: T23, 4H3595-AA; settings: mean of both orientations
T23 chain: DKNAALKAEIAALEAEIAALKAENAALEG

4H2774-AA = molecular target: T24, 4H2774-AA; settings: mean of both orientations
T24 chain: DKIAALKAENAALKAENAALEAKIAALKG

4H2903-AA = molecular target: T25, 4H2903-AA; settings: mean of both orientations
T25 chain: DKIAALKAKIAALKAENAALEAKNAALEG

4H446-AA = molecular target: T26, 4H446-AA; settings: mean of both orientations
T26 chain: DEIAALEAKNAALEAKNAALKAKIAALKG

4H406-AA = molecular target: T27, 4H406-AA; settings: mean of both orientations
T27 chain: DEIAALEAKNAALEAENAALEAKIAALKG

4H1828-AA = molecular target: T28, 4H1828-AA; settings: mean of both orientations
T28 chain: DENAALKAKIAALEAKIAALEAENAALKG

4H56-AA = molecular target: T29, 4H56-AA; settings: mean of both orientations
T29 chain: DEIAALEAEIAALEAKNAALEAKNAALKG

4H2253-AA = molecular target: T30, 4H2253-AA; settings: mean of both orientations
T30 chain: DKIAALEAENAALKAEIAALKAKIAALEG

4H1930-AA = molecular target: T31, 4H1930-AA; settings: mean of both orientations
T31 chain: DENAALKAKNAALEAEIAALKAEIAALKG

4H_GCN4 = molecular target: 4H_GCN4
4H2592-AA = molecular target: T32, 4H2592-AA; settings: mean of both orientations
T32 chain: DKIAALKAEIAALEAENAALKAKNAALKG

4H347-AA = molecular target: T33, 4H347-AA; settings: mean of both orientations
T33 chain: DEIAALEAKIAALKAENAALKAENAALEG

4H2343-AA = molecular target: T34, 4H2343-AA; settings: mean of both orientations
T34 chain: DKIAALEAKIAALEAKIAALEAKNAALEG

4H_BCR = molecular target: T35, 4H_BCR; settings: mean of both orientations
T35 chain: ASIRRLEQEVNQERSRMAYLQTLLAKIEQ

4H2931-AA = molecular target: T36, 4H2931-AA; settings: mean of both orientations
T36 chain: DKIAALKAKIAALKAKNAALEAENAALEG

4H2124-AA = molecular target: T37, 4H2124-AA; settings: mean of both orientations
T37 chain: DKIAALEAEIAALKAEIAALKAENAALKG

4H3073-AA = molecular target: T38, 4H3073-AA; settings: mean of both orientations
T38 chain: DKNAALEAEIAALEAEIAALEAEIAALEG

4H3001-AA = molecular target: T39, 4H3001-AA
T39 chain: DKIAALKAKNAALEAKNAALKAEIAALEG

4H3438-AA = molecular target: T40, 4H3438-AA; settings: mean of both orientations
T40 chain: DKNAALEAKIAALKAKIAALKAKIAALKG

4H2466-AA = molecular target: T41, 4H2466-AA; settings: mean of both orientations
T41 chain: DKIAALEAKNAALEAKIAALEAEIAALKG

4H452-AA = molecular target: T42, 4H452-AA; settings: mean of both orientations
T42 chain: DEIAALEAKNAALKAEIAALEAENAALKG

4H2330-AA = molecular target: T43, 4H2330-AA; settings: mean of both orientations
T43 chain: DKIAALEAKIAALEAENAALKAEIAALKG

4H1821-AA = molecular target: T44, 4H1821-AA
T44 chain: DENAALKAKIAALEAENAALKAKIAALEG

4H3015-AA = molecular target: T45, 4H3015-AA; settings: mean of both orientations
T45 chain: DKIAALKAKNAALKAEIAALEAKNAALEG

4H2165-AA = molecular target: T46, 4H2165-AA; settings: mean of both orientations
T46 chain: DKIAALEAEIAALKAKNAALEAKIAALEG

GCN2_T = settings: mean of both orientations
4H_APH = molecular target: T47, 4H_APH; settings: mean of both orientations
T47 chain: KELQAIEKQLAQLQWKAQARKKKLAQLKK

4H2732-AA = molecular target: T48, 4H2732-AA; settings: mean of both orientations
T48 chain: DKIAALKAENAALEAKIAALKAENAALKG

Chain of 4H_GCN4 (chain, as listed by the source): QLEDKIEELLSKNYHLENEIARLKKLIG

In the case of DENAALEAKIAALKAEIAALKAKNAALKG [4H1360-AA], the interaction score (4H2728-AA) is reported as -1.69, the interaction score (4H2961-AA) is reported as -1.52 and the interaction score (4H3939-AA) is reported as 0.656. It also gave an interaction score (4H2580-AA) of 1.2, an interaction score (4H3629-AA) of 0.958 and an interaction score (4H3782-AA) of -0.0635. It also gave an interaction score (4H1360-AA) of -0.121, an interaction score (4H3969-AA) of 0.163 and an interaction score (4H464-AA) of -1.69. It also gave an interaction score (4H1454-AA) of -1.08, an interaction score (4H3129-AA) of -1.34 and an interaction score (4H1913-AA) of -1.61. It also gave an interaction score (4H1558-AA) of -0.811, an interaction score (4H249-AA) of -1.76 and an interaction score (4H380-AA) of -1.11. It also gave an interaction score (4H63-AA) of 0.265, an interaction score (4H2699-AA) of 0.416 and an interaction score (4H483-AA) of -1.58. The interaction score (4H3049-AA) was -0.108, the interaction score (4H2621-AA) was -1.11 and the interaction score (4H3414-AA) was -1.25. The interaction score (4H341-AA) was 0.0278, the interaction score (4H3595-AA) was 2 and the interaction score (4H2774-AA) was -1.2. For the same binder, the interaction score (4H2903-AA) was 0.0597 and the interaction score (4H446-AA) was -1.69.

Binder DENAALKAKIAALEAENAALKAKIAALEG [4H1821-AA] has an interaction score (4H406-AA) of -1.34, an interaction score (4H1828-AA) of -2.13 and an interaction score (4H56-AA) of -1.44. For the same binder, the interaction score (4H2253-AA) was -0.989, the interaction score (4H1930-AA) was -1.43 and the interaction score (4H_GCN4) was -1.85. The interaction score (4H2592-AA) was -1.24, the interaction score (4H347-AA) was -1.26 and the interaction score (4H2343-AA) was -1.42. It also gave an interaction score (4H_BCR) of -1.69, an interaction score (4H249-AA) of -1.68 and an interaction score (4H2931-AA) of -1.77. The interaction score (4H2124-AA) was -1.19, the interaction score (4H3073-AA) was -1.15 and the interaction score (4H3001-AA) was -1.51. It also gave an interaction score (4H3438-AA) of -1.77, an interaction score (4H2466-AA) of -1.51 and an interaction score (4H452-AA) of -1.25. The interaction score (4H2330-AA) was -0.746, the interaction score (4H1821-AA) was 1.48 and the interaction score (4H3015-AA) was -1.83. For the same binder, the interaction score (4H2165-AA) was -1.28, the interaction score (GCN2_T) was -1.68 and the interaction score (4H_APH) was -2.19. It also gave an interaction score (4H2732-AA) of -1.04 and an interaction score (4H2774-AA) of -1.53.
